Conditions: Saccharomyces cerevisiae (strain ATCC 204508 / S288c), pH 7.5, 25 °C, GdnHCl, CD, Tris-HCl 20 mM, NaCl 40 mM, reversible: yes (94-100%)

Cytochrome c isoform 1 K79I, P00044, sequence (P00044 whole entry K79I, canonical isoform): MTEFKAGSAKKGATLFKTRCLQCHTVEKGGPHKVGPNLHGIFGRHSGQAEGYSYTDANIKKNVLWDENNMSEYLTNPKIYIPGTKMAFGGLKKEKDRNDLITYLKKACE
Cytochrome c isoform 1 K79L, P00044, sequence (P00044 whole entry K79L, canonical isoform): as the sequence (P00044 whole entry K79I, canonical isoform) above, with I79L counted along it
Cytochrome c isoform 1 K79A, P00044, sequence (P00044 whole entry K79A, canonical isoform): as the sequence (P00044 whole entry K79I, canonical isoform) above, with I79A counted along it
Cytochrome c isoform 1 K79G, P00044, sequence (P00044 whole entry K79G, canonical isoform): as the sequence (P00044 whole entry K79I, canonical isoform) above, with I79G counted along it
Cytochrome c isoform 1 K79V, P00044, sequence (P00044 whole entry K79V, canonical isoform): as the sequence (P00044 whole entry K79I, canonical isoform) above, with I79V counted along it
Cytochrome c isoform 1 K79R, P00044, sequence (P00044 whole entry K79R, canonical isoform): as the sequence (P00044 whole entry K79I, canonical isoform) above, with I79R counted along it
Cytochrome c isoform 1 wild type, P00044, sequence (P00044 whole entry, canonical isoform): as the sequence (P00044 whole entry K79I, canonical isoform) above, with I79K counted along it

Substance	ddG of mutation (higher = less stable) (structure 1YCC) [kcal/mol]	denaturant m value (structure 1YCC) [kcal/mol/M]	denaturant midpoint (higher = more stable) (structure 1YCC) [M]	unfolding free energy (structure 1YCC) [kcal/mol]	denaturant m value [kcal/mol/M]	denaturant midpoint (higher = more stable) [M]	unfolding free energy [kcal/mol]
Cytochrome c isoform 1 K79A, P00044	0.45	4.44	1.17	5.21	–	–	–
Cytochrome c isoform 1 K79G, P00044	0.74	4.58	1.07	4.92	–	–	–
Cytochrome c isoform 1 K79I, P00044	1.19	4.29	1.04	4.47	–	–	–
Cytochrome c isoform 1 K79L, P00044	0.03	4.98	1.13	5.63	–	–	–
Cytochrome c isoform 1 K79R, P00044	0.03	5.25	1.07	5.63	–	–	–
Cytochrome c isoform 1 K79V, P00044	1.38	4.01	1.07	4.28	–	–	–
Cytochrome c isoform 1 wild type, P00044	–	–	–	–	4.87	1.16	5.66
